Experiment: soluble on expression in E. coli; label from the status in PepcDB or PDB records

Soluble on expression in E. coli, not soluble:
MGSDKIHHHHHHQKEGSLKIGKEGAESGFINLRVEIPPGAFGKQKVLKITRLSDEERKLYPDVFVGDLYRVEFADGVDEFALKPIRLKYYFDAKYLRGENYNNLTFAYATEDGGYRIIPGSMIGKDERGYYVEAFTYHLSVFGVVLRSAGFQKHGIRLLREAVNSSGPAVLLVPGEDPTFEGVVKDNNIWETIFPDRTIMTYEYALYEPRSLAYSEMYRSFIEKEGRRSFIDFESDFLSQEILKYSQYEFDILAHGTGGLIVLRMLQRHPEVNNVRKVVLLSTPVQGTNVVNPLYFSSIFYGKDPEVLEDIFGIEWTKLKMLTLHIRNLIDTLGEVVQEILPDSQLVKELGGFSRNDVEIVSICGDTPPYGVDVSGTELERFYPEFVKGRGDGFVSIQSCRVGKVEQLSGNFYDLYSREENVAYIRELLKYEVQVFSGFRSDDYEEYLPSKNPELSEESAQKVVEVKETEGTEFPVLPVNILFENFLERIRSLELSSYLSGALVGKEVYIATESGVFAWDKKVLDKKIEFFKKIEDYASFVGEGDIFIIDNIGIKKYAPFPLVGDISDALITRNAIIYARVVPGGVRYYLFRNGAEKLIATSPGTTVRMKSENGNYLLITDGEVVAIGSDFKEKGRVLSSLFGEKVKIVDASFKDDAFYILLNDGSIAFVSSSRSETKNYGLAVPKKVLNFQGRILVVYDGVILDLSAGKAQRFDRGIIDVFPGNESLFIVFDEKVRVSVEEWWLSKD, MGSDKIHHHHHHSCTQDSDTFYPSSPEEEHPSVDESRMIPIQLSVDGVDQFYGGAVTRSGETVARLVQPLDSTYDTGYDVETTVESIPLENIVSTRANLGNVQFRVVAYRTDASSADHYAGTAVYKTNGSGVAAIVAKTATPVNSAGQWILGPGTYTFVCYSYGLNSAPAMLSGNWSATVSHNQDFMLCRKEEVVVAPDDRGEFTLGGISFTRQCALLQLAVTANDFTNNTVQQCAATVSNLNSNNITWNAGQTALSTGGTGGAVNFSWSSLNAATVNSNVYKVLPQSSRTLTIKLTTLRIGNIQYNNRVTVNASGRQFAAGGNYKITVKITGNGITVGGATWAKGNVYKSGSNFYFESSQSGYHSGTQGGSFFGWNTLSSTNNTYGGSSFSSDNDPCYQVAPRGTWCTPTANQLQNLGNSGYRSGYLDGKRGGYFGGNKVFLPAMGNRGKNNVNYWPETGYYRSSTGASGKRCYYLEFNQSYAVKNNYYWYWDGFPIRCVKR, MGSDKIHHHHHHSDDKDSYPVPSDIENLKATPAPGQITLSWTNPADENLYYVQIEYTIGATGKSYRKQVSQYANELVIDNLLQKYGEINFTVQAFNRGNTAGTIHQITAQAEKASPTFGTPVKIDLDYKKIWTNAPFPTRPIKDLVDGNIATFFHSWWSSLVEMPHYLVVDLGEEVSAIKFRSTNTNRANDSSWKTINLYTSDSYNPAEWFDGVEKIDGNTVDISQAGTHKETTLTGLPDGVSEVYNSEVIPLSKPSRYLWFEVTETTKGTPYFALGELEIYQCSMVVLE, MGSDKIHHHHHHSDSLQSAYDTDATYRDKAGKKESGYTATFTETCNSENDVQIIVDYTVEPNNKSDVEIFQDRMDIIKDNTNASDIYADGGYYGENVINKANSKGIEIQLHYTDMTGKTAPEGQLPAHHFVFNKDMEMVQCPGGQIPSSSKYNSKTKITTSHFPKEVCNNCPHRCNCPLKEQKRDMVVRISKKSILASQVRETVNDPHIKHENISKRAAIEGTNSAIKGCQGAKRLRVRGKIKCTLQIGFKVIGHNFKQIFRALTKQIKKPKIKTKGLLCPNPN, MGSDKIHHHHHHSEENESSGTIEMNQLPGTAQSFLSNYFPGQTPEKIERTNTDQENARLLYRVVFPNEVKVEFSENGGWKRLMIPDQKLPGSLDSLWGKIIEYVQQLFPDDPFIGIENACYGDCVLLSSGKKIAFYYDGTCIGYEMDIKDESGVPQPVRDFVATYFPDGVFQAVVEHIPNENVTAGYSFWLENGFKCVLNDRGQWTEVNGGTELLPVSILETLPAKVTEQLYRDYPAAQVTYIRLEGTCYTIQVSKTVYVTIDPESKPIVVPVMQAQALAEEYFGKLRSISISHPLHTDVLNFKVCLPNGFNMLVNEDASEWLNIDGNGFAFPEKLVASLPEKITEYISAHSNSEITRVDRSVAASFLVELTNGDGLMFDSQGGFLGKEKIELSISEKTYRYMRHQFPDDLNMYFSSYSIEGWIYKLGDGSQVRFDRDGNFVEMIAAAK, MGSDKIHHHHHHSLQAQSTVSHNLANVDTVGFKAALANTEAFQIRGKGYPSRIDALHVDQGFDRSQGHQKVTGNPLDVSLQQDRWLAVQSPDGSEAYTRNGELALTANGQLVTANGHAVLDEGGNPMTIPPHQAMEIGSDGSISIIPQGEGPQTMAIVGKMKVVDAPADRLMRRPDGLMRNTSTDPAQAFAVATGKTVNSGMLEGSNVDAAGALVEMIQLQRQFEMQVKIIKNGDDNAQSANSLLRVSG, MGSDKIHHHHHHSNPTRSIPATDAVSSATAGKKMGLQTYSLGQELLQDMPNGLNRLAKAGYTDLEIFGYREDTGKFGDYNPKNTTFIASKDYKKMVDDAGLRISSSHLTPSLREYTKENMPKFDEFWKKATDIHAELGVSCMVQPSLPRIENEDDAKVVSEIFNRAGEITKKAGILWGYHNHSNEFKRVLKAGEKPEQNPNPWAPPKGTYIEELFLKNTDPDKVMFELDVYWAVMGQQDPVEWMENYPNRFKLLHIKDRWIIGDSGMMNFPNIFKKAYEIGILGYYVELEGDKKGRTQFEGVEKSAAYLQAAPFVK, MGSDKIHHHHHHTEYPLPAAQSRLIGENQYYTVPEGKHTLEDIAAKYQLGLSNLLEANPGVDPFLPKPGSQLLIPLQLILPNAPREGIVINVAEMRLYYYPKGKKTVEVLPIGIGQIGKDTPENWVTSVQRKRANPTWTPTPRIRKEYAAKGEILPAVWPAGPDNPMGLYALYIGNLYAIHGTNASFGIGLRVSQGCVRLRHEDIEHLFKNVPVGTRVQFVNQPIKATEEPDGKRYLAVHQPLSRTVAEFESNEPVAISLPRDIAKFIAKADTNSSVIKKLLDERTGVPMRINQ, MGSDKIHHHHHHVALLQDELKIRKIHELLHMKLALPPYQRPYSWSVKSANTLFQDTYNAYHEGLQEYRVGSVILHKENGKYNIVDGQQRLTTISILLYCLGEKDLGLLQEKYNQLSNDVIVTNYEILSKRISELPKDEQNKYKNYLFERCSVVQIVTDSEQEAFQFFDSQNSRGKELTPHDLLKSYHLREMNDEEENQKIRIINQWENVNQDDLNDLFKIYLYPLTQWYKGKSGLGYSSSKIDVFKGIKTTNVFNYAIYHKASNLFVEQFNANGSNELLASRALNQFQLTQPLMAGKRFFYYTLHYRNLLEQVQRLVSKVHTEEQVPSRRTGDLYIKQLYECALLFFADRFGIENLSKAVMQQLYTWSYSLRLVMEAVYLQTINKYVRGEHERVNYGLGMFSEISEMKNGEELKLISLEQPKIENKNKEKYRDVYDLLCEWNRW, MGSDKIHHHHHHVATGTGLVAIPAAEKVGSEGYVIGIDMTPGMLHQARIKIAAAKLQNIELIEADVEYFNFSESSFDVVFCCEAIVLVPDILAILKKWYRFLKPGGFVAFTCPPETAFMASLQQRICARVLGVSLPHILEPLGTPEKCRNLLNQAGFRDIEIKIEPSGRYRPLRDNRLSEIAININFKGNPLLSKLSQEQLNQLQVEYKAEIEKLATEQGIWEDTTKLFVRARK, MGSDKIHHHHHHVAVKAYLKRELRNLQSLAPAVRTAKFSLYNFGTRSAGLFVEPEFKLLAHLRPVKLAIDIGGNWGQSVLALQRYAAPERIVTFEPNPELYRRLSARFRSDPSIQVENVGLGDAAGQFDLHIPLYRNFVYDGLASLNKDEAAQWLNPRTMARFDPSKLTIQSHTVRVVKLDDYNLVPDIIKIDVQGLEDAVARGGIKTIDRAKPAMIVEAPSASFVQMMADCGLRPYTWNGTRLVDAADGSNVMFLSDEKLRKLVKVRPKPEKPE

From the DeepSol protein solubility set
